The results in this text go back to the RNAGym collection of RNA variant scans (doi:10.7554/elife.80360).

The chains are these.
B1: Hairpin Ribozyme (parent)
chain: GUCCUCUUUCACGUGCGCGUGAAAGAGAGAAGUGAACCAGAGAAACACACGUUGUGGUAUAUUACCUGGUA

The variants in this data set derive from B1. The data set is described as follows: self-cleavage, relative activity (ratio to wild type); higher = more cleavage; co-transcriptional.
Turning to G21U G32A, the self-cleavage was determined as 0.18.
In the case of G21U G32C, the self-cleavage was 0.145.
Next, G21A G57C: 0.193.
On to G21A G57U, for which the self-cleavage amounted to 0.232.
For U20G U53G, the self-cleavage is 0.702.
As to G21C A49G, the self-cleavage was determined as 0.302.
The result for G21C A49C reads 0.17.
Regarding G21C A49U, the self-cleavage came out at 0.293.
The result for U20C A41C reads 1.11; that for U20G G27A, 0.31.
Next, G21C A41G: 0.606; U20G A44C: 0.162.
Next, U20G A44G: 0.143.
In the case of G21U A24G, the self-cleavage was 0.805.
Next, G21U G40C: 0.122; A22C C37G: 0.368; A22C C37A: 0.25.
Next, A22C C37U: 0.435; G21A A45G: 0.177.
For G21A A45C, the self-cleavage is 0.16.
Next, U20C A45C: 0.105; G21U A35G: 0.757.
Next, U20C G21C: 0.778; U20C A64C: 0.151; U20C A64G: 0.558.
The result for U20C G54A reads 0.544.
In the case of U20C G54U, the self-cleavage is 0.386.
Next, G21A A44C: 0.116; G21A A44G: 0.142; G21A A44U: 0.215.
For U20C A24C, the self-cleavage amounted to 0.612.
For the variant A22C A39U, the self-cleavage is 0.461.
Next, G21U G34C: 1.08; G21C G51U: 0.865.
The result for G21C G51C reads 0.803; that for G21C A24U, 0.585.
The result for G21U U67G reads 0.36.
In the case of U20G A26U, the self-cleavage was determined as 0.683.
Regarding G21C A23G, the self-cleavage was 0.77.
Next, U20G C65U: 0.374.
Take U20C G42U: the self-cleavage turned out to be 0.172.
The result for G21C G54C reads 0.305; that for G21U C66A, 0.236; that for G21U C66G, 0.123.
Turning to G21C U55G, the self-cleavage worked out at 0.248.
As to G21C U55A, the self-cleavage came out at 0.165.
Turning to G21C U55C, the self-cleavage turned out to be 0.204.
The result for G21C C50U reads 0.256.
Regarding G21C C50A, the self-cleavage stood at 0.386.
Next, G21C U53G: 0.58.
Take G21U G57C: the self-cleavage was 0.176.
With A22C G27C, the self-cleavage was determined as 0.123.
Consider U20G A24G, for which the self-cleavage was 0.673.
For the variant U20G A36G, the self-cleavage was 0.569.
The result for G21A U62C reads 0.199.
The result for G21A U62A reads 0.135.
Next, U20C C50A: 0.206.
Take U20C A71G: the self-cleavage amounted to 1.12.
Next, G21U U33G: 0.127; G21U U33A: 0.242; U20G C38G: 0.119.
Next, G21C A31U: 0.0322; G21C A31C: 0.0833; G21A U70C: 0.758.
For G21A U70G, the self-cleavage worked out at 0.821.
Regarding G21C U62A, the self-cleavage came out at 0.206.
The result for G21C U62C reads 0.334; that for U20G U60G, 0.662.
Next, G21U C65U: 0.234; G21U C65G: 0.257.
Next, G21A G68U: 0.165.
Turning to A22C A41U, the self-cleavage is 1.06.
In the case of G21U A71U, the self-cleavage is 0.754.
Next, G21U A71C: 1.2; G21A C48G: 0.192.
The result for G21A U60G reads 0.533; that for G21C G29A, 0.0976; that for G21C G29C, 0.119.
Next, G21C G57C: 0.143; G21A U52A: 0.78; G21U G29U: 0.106.
With G21U G29A, the self-cleavage was found to be 0.142.
With U20C U52G, the self-cleavage amounted to 1.12.
Next, U20C U52C: 1.03; U20C U52A: 0.957.
Take U20G C46A: the self-cleavage is 0.229.
Next, U20G C46G: 0.219.
Take U20C U33A: the self-cleavage turned out to be 0.0957.
The result for U20C U33G reads 0.0535.
Take A22C A43G: the self-cleavage was 0.249.
The result for A22C U63A reads 0.288.
The result for A22C G40A reads 0.242; that for A22C U52A, 0.821; that for U20G U67G, 0.157.
With U20G U70G, the self-cleavage was 0.994.
As for G21U A45U, the self-cleavage worked out at 0.218.
G21U A45C: the self-cleavage amounted to 0.218.
The result for G21U A45G reads 0.26; that for G21C C48A, 0.0883; that for G21U C46G, 0.0824.
As for A22G A23G, the self-cleavage amounted to 0.945.
The result for G21U A43C reads 0.146.
U20C G34A: the self-cleavage was 1.15.
Next, U20C G34U: 1.32.
Next, U20C U58G: 0.785; U20C C48A: 0.221; U20G A59U: 0.123.
As for U20C A44G, the self-cleavage turned out to be 0.204.
For the variant U20C A44U, the self-cleavage came to 0.115.
For the variant G21U A41G, the self-cleavage was 0.772.
On to G21C C65U, for which the self-cleavage was determined as 0.304.
The result for G21C C65G reads 0.249; that for U20G A35U, 0.581.
Regarding U20G A35G, the self-cleavage worked out at 0.559.
Next, G21U U62C: 0.272; A22C C38A: 0.124; U20G U62G: 0.323.
In the case of U20G U62A, the self-cleavage was 0.149.
For G21A A61C, the self-cleavage came out at 0.253.
Next, G21A A31G: 0.424.
Take G21A A31C: the self-cleavage came out at 0.133.
Next, G21U A49U: 0.189.
Next, U20G A45C: 0.16; A22C: 0.848; A22G: 0.871.
Next, U20C A31U: 0.188; A22C C50A: 0.22.
A22C C50G: the self-cleavage worked out at 0.126.
Next, U20G G40A: 0.296; U20G G40U: 0.206.
Next, U20C U70A: 1.08; U20C U70C: 0.945; G21C A71U: 0.794.
The result for G21U U70G reads 0.687; that for G21U U70A, 0.791; that for G21U G54U, 0.329.
For the variant G21U G54C, the self-cleavage amounted to 0.438.
Next, G21U G54A: 0.582; A22C G51C: 0.769.
Next, A22C G51A: 0.93; U20G A43G: 0.206.
With U20G A43C, the self-cleavage turned out to be 0.214.
In the case of U20G A43U, the self-cleavage is 0.189.
On to G21A U55G, for which the self-cleavage was found to be 0.271.
Next, G21A U55C: 0.242; U20G C66U: 0.411; U20G U52C: 0.998.
U20G U52A: the self-cleavage is 1.09.
Turning to G21A C46U, the self-cleavage amounted to 0.173.
Next, G21A C46G: 0.254; A22C A35G: 0.679.
The result for A22C A35U reads 0.746; that for A22C A35C, 0.895; that for U20C A22C, 0.482.
Next, G21C A22G: 0.786; A22C U58G: 0.575; G21U G42C: 0.36.
Consider G21U G27A, for which the self-cleavage was determined as 0.25.
As for U20C A26U, the self-cleavage was determined as 0.692.
G21A A22U: the self-cleavage is 0.771.
G21A A22C: the self-cleavage is 0.581.
As for G21C A61G, the self-cleavage stood at 0.104.
Next, G21C A61U: 0.304; G21A U33A: 0.151.
The result for G21C C38G reads 0.154.
The result for U20G G29U reads 0.101; that for G21U U52G, 0.661.
